Assay results from article PMC11953334, “Substrates bind to residues lining the ring of asymmetrically engaged bacterial proteasome activator Bpa” (Nature Communications, 2025).

Target: bacterial proteasome activator Bpa, full-length, wild-type (M. tuberculosis H37Rv) (UniProt P9WKX3)
Assay: MST

**Q.** Which Kd does the source give for “heat shock repressor HspR, wild-type (natural protein)” here?
**A.** 4.3 µM
